For experiment [1], the target named is T1, human FcRn (human, UniProt P55899 24-297; P61769 21-119).
T1 construct: beta-2-microglobulin is not mentioned; also called hFcRn; recombinantly expressed hFcRn
The experiment is described as follows: Biacore (SPR): hFcRn amine-coupled on a CM5 chip, antibody as mobile phase, pH 6.0, 1:1 Langmuir fit. On the technique in general: Surface plasmon resonance follows binding to a sensor surface in real time, without labels.
Method: (§1) The affinity was then calculated by fitting the data using a 1:1 Langmuir binding model.

Experiment [2] addresses T2, FcγRIIa R131 on Jurkat/NFAT-luc2p/FcγRIIa R131 cells (UniProt P12318 34-317).
T2 sequence (looked up): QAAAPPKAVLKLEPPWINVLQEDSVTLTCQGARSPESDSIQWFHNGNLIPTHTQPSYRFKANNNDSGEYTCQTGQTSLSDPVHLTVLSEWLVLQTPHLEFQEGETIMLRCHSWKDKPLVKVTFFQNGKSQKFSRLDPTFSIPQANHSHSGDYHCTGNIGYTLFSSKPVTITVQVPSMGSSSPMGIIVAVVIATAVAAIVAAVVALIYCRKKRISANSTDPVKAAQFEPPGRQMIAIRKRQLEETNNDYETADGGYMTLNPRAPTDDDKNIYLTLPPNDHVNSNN
The experiment is described as follows: cell-based or functional assay.

In experiment [3] the target is Pre-S1 domain of the L protein on recombinant HBV D genotype virus (hepatitis B virus, D genotype). The experiment can be described thus: cell-based or functional assay.
Experiment [4] concerns the target FcγRIIIa F158 on Jurkat/NFAT-luc2p/FcγRIIIa F158 cells (UniProt P08637 17-254, limits assumed). The experiment can be described thus: cell-based or functional assay.
In experiment [5] the target is T3, antigen peptide NC36b (pre-S1).
T3 construct: Synthesised by Beijing Zhongke Yaguang Biotechnology; also called target antigen Pre-S1
The experiment can be described thus: ELISA on the antigen peptide NC36b (Pre-S1), panel title 'Binding to PreS1'. Background: ELISA stands for enzyme-linked immunosorbent assay.

Experiment [6] addresses T1, human FcRn. The experiment can be described thus: Biacore; hFcRn amine-coupled on CM5 chip, antibody in mobile phase, pH 6.0, 1:1 Langmuir fit.
Method: as §1
For experiment [7], the target named is T4, hFcγRIIa (H131) (human, UniProt P12318 34-217).
T4 construct: also called hFcγR2a H131
T4 sequence: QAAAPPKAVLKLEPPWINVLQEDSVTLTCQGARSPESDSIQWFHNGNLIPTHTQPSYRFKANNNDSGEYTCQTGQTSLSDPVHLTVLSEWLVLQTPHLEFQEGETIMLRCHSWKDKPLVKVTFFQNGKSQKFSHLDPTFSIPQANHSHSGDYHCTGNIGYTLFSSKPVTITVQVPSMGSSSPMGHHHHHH
The experiment can be described thus: Biacore; ratio against A14 WT.
Method: (§2) Different concentrations of recombinant hFcγR were used as the mobile phase over the flow path to allow binding and dissociation with the antibodies on the chip at pH 7.0. The affinity was then calculated by fitting the data using a 1:1 Langmuir binding model.

Experiment [8] addresses T5, hFcγRIIb (human, UniProt P31994 43-217).
T5 construct: also called hFcγR2b
T5 sequence: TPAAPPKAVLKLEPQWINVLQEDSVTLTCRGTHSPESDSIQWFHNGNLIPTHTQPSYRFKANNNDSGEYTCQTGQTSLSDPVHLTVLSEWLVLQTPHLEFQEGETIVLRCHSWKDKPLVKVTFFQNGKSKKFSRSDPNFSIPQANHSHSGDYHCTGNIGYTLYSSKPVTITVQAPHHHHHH
The experiment is described as follows: Biacore; ratio against A14 WT.
Method: as §2

In experiment [9] the target is T6, hFcγRIIa (R131) (human, UniProt P12318 34-217).
T6 construct: also called hFcγR2a R131
T6 sequence: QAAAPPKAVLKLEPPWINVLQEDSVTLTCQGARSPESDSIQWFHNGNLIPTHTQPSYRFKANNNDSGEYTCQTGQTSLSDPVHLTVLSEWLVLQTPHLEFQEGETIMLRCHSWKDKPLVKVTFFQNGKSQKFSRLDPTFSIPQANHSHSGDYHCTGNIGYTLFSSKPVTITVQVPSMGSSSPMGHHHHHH
The experiment is described as follows: Biacore; ratio against A14 WT.
Method: as §2

For experiment [10], the target named is T7, hFcγRIIIa (F158) (human, UniProt P08637 17-208).
T7 construct: F at position 158; also called hFcγR3a F158
The experiment can be described thus: Biacore; ratio against A14 WT.
Method: as §2

Experiment [11] concerns the target T8, hFcγRIIIa (V158) (human, UniProt P08637 17-208).
T8 construct: V at position 158; also called hFcγR3a V158
The experiment is described as follows: Biacore; ratio against A14 WT.
Method: as §2

For experiment [12], the target named is T9, hFcγRIa (human, UniProt P12314 16-288, limits assumed).
T9 construct: Recombinant, Ni column purified; also called hFcγR1a; human FcγRI
The experiment can be described thus: Biacore; ratio against A14 WT.
Method: as §2

Experiment [13] concerns the target T4, hFcγRIIa (H131). The experiment is described as follows: Biacore; antibody captured on Protein G CM5 chip, hFcγR in mobile phase, pH 7.0, 1:1 Langmuir fit.
Method: as §2
The target in experiment [14] is T5, hFcγRIIb. The description is as above.
Method: as §2
The target of experiment [15] is T6, hFcγRIIa (R131). The description is as above.
Method: as §2
Experiment [16] deals with T7, hFcγRIIIa (F158). Described as above.
Method: as §2
Experiment [17] addresses T8, hFcγRIIIa (V158). The description is as above.
Method: as §2
Experiment [18] deals with T9, hFcγRIa. Described as above.
Method: as §2

T1 sequence (P55899 24-297 limits assumed, chain 1 of 2): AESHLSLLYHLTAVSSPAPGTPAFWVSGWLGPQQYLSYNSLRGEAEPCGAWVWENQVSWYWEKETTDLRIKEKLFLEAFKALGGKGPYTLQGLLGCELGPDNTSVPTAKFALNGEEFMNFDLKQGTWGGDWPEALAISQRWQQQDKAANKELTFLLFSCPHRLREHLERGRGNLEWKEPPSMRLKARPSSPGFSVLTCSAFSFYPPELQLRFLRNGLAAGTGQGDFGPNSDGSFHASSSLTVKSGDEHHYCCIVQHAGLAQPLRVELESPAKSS
T1 sequence (P61769 21-119 limits assumed, chain 2 of 2): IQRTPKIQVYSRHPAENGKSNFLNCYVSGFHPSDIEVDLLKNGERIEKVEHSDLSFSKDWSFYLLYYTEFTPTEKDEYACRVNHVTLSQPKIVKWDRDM
T8 sequence (P08637 other isoform, or with tags, fused parts or gaps): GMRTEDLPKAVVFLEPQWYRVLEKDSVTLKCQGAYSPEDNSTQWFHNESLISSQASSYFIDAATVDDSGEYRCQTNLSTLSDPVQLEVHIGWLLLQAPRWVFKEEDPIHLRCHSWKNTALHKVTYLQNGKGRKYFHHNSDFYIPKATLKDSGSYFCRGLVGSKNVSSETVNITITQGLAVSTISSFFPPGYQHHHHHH
T9 sequence (P12314 other isoform, or with tags, fused parts or gaps limits assumed): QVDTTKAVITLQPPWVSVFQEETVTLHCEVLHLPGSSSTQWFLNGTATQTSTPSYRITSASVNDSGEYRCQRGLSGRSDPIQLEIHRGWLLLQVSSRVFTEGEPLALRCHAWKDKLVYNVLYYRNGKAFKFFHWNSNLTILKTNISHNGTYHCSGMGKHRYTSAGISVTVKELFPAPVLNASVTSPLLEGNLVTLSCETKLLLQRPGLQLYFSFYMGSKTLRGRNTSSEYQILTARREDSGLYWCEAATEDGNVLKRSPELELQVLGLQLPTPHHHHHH
T7 sequence (P08637 other isoform, or with tags, fused parts or gaps): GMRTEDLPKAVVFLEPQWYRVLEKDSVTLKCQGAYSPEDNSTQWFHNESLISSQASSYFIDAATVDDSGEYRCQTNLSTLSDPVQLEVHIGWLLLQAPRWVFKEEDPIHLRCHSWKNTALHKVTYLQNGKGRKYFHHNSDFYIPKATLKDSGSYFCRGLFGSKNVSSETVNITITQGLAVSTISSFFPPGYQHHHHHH

B1: afuco-A14 GA LS (antibody, human IgG1, lambda)
heavy: QVQLQQSGPGLVKPSQTLSLTCAISGDSVSSNSAAWNWIRQSPSRGLEWLGRTYYRSKWYNDYAVSVKSRITINPDTSKNQFSLQLNSVTPEDTAVYYCARGTRWGMDVWGQGTLVTVSSASTKGPSVFPLAPSSKSTSGGTAALGCLVKDYFPEPVTVSWNSGALTSGVHTFPAVLQSSGLYSLSSVVTVPSSSLGTQTYICNVNHKPSNTKVDKKVEPKSCDKTHTCPPCPAPELLAGPSVFLFPPKPKDTLMISRTPEVTCVVVDVSHEDPEVKFNWYVDGVEVHNAKTKPREEQYNSTYRVVSVLTVLHQDWLNGKEYKCKVSNKALPAPIEKTISKAKGQPREPQVYTLPPSRDELTKNQVSLTCLVKGFYPSDIAVEWESNGQPENNYKTTPPVLDSDGSFFLYSKLTVDKSRWQQGNVFSCSVLHEALHSHYTQKSLSLSPGK
light: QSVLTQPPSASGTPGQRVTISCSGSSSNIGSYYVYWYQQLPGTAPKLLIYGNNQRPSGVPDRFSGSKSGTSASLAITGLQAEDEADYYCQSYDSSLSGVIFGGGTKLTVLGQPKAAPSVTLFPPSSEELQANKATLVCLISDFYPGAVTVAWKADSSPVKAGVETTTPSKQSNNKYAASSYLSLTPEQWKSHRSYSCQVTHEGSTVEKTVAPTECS
modifications: Afucosylated modification (expressed in Fut8-knockout FCC# cells)
notes: IgG1
In the case of B1, the Kd (in general, the equilibrium constant for the complex coming apart) was 6.46 nM in the experiment with human FcRn [1]; 169 nM with hFcγRIIa (H131) [13]; 7470 nM in the experiment with hFcγRIIb [14]; 204 nM with hFcγRIIa (R131) [15]; 588 nM with hFcγRIIIa (F158) [16]; 123 nM with hFcγRIIIa (V158) [17]. For the same molecule, the Kd with hFcγRIa [18] came to 173 nM. The “ADCP activity, fold enhancement compared to A14 (Jurkat/NFAT-luc2p/FcγRIIa R131 reporter)” value in experiment [2] is not below 4.7 fold. Besides, in experiment [3], the “IC50 of inhibition of HBV infection of HepG2-hNTCP cells (HBeAg secretion)” value is approximately 0.011 µg/mL. In addition, the “ADCC activity, fold enhancement compared to A14 (Jurkat/NFAT-luc2p/FcγRIIIa F158 reporter)” value in experiment [4] turned out to be 18.6 fold. For the same molecule, the EC50 (read off the curve) – broadly, the midpoint of the concentration-response curve – in [5] was approximately 0.02 µg/mL. Moreover, the “fold change in KD against A14 WT” value with human FcRn [6] was 3.4 fold. In addition, the “Fold (KD of A14 WT over KD of afuco-A14 GA LS)” value stood at 4.63 fold with hFcγRIIa (H131) [7]; 0.76 fold with hFcγRIIb [8]; 3.83 fold with hFcγRIIa (R131) [9]; 11 fold with hFcγRIIIa (F158) [10]; 7.89 fold with hFcγRIIIa (V158) [11]; 0.41 fold with hFcγRIa [12].

These data come from patent US20260250361A1 (HUAHUI HEALTH, published 2026).
